Residue numbers refer to the chain shown, from its start. Names may count otherwise.
B1: SEQ ID NO: 78: TNFα (Y87S) variant with the 12 C-terminal residues of SEQ ID NO: 23 inserted (protein)
chain: MVRSSSRTPSDKPVAHVVANPQAEGQLQWLNRRANALLANGVELRDNQLVVPSEGLYLIYSQVLFKGQGCPSTHVLLTHTISRIAVSSQTKVNLLSAIKSPCQRETPEGAYFVAAFTLHAAAEAKPWYEPIYLGGVFQLEKGDRLSAEINRPDYLDFAESGQVYFGIIAL
modifications: Synthetic TNF variant incorporating pan-DR binding peptide
B2: SEQ ID NO: 79: TNFα (Y87S) variant with the 12 C-terminal residues of SEQ ID NO: 29 inserted (protein)
chain: B1 chain with Y111H, F116N
modifications: Synthetic TNF variant incorporating pan-DR binding peptide
B3: SEQ ID NO: 84: TNFα (Y87S) variant with the 12 C-terminal residues of SEQ ID NO: 69 inserted (protein)
chain: B1 chain with Y111I, F116W
modifications: Synthetic TNF variant incorporating pan-DR binding peptide

System: crude extract from E. coli
Test: In situ protease assay: TNFα variants in E. coli crude extract, SDS-PAGE and Western blot
Type: in vitro ADME
Settings: E. coli crude extract, immunoblot; data not shown
Method: In order to test the protease resistance of selected, good binding PADRE analogues, their sequences were inserted by cloning techniques into a loop (loop EF) in human TNFα. Cell-free protein crude extract from E. coli expressing the modified TNFα molecules was prepared and proteolytic cleavage within the PADRE analogue sequences was analysed by SDS-PAGE followed by immunoblotting.
A synthetic cDNA encoding TNF (Y87S) was used as template. Oligonucleotides encoding PADRE or PADRE analogues were inserted into the template between A185 and E186 by PCR (cf. above). Resulting cDNAs were cloned into pET28b+(Novagen) and transformed into E. coli strain HMS 174. For recombinant expression, the resulting E. coli strains were cultured in fermentors in a defined medium at 37° C. Induction of recombinant expression was initiated by the addition of 1 mM of IPTG and temperature was lowered to 25° C. Cultures were harvested at 4, 8 or 24 h post-IPTG induction. TNFα variants were purified to >90% homogeneity by affinity chromatography using a TNFα specific monoclonal antibody as described in Nielsen et al., (2004), J Biol. Chem. 279:33593-33600. The purified TNFα variants were characterized by MALDI-TOF mass spectrometry to verify their identity and integrity.
In Situ Protease Assay: Analysis of the Protease Resistance of TNF-α Variants Using Western Blot
Aliquots (1 ml) of E. coli cell cultures, expressing the various TNF-α variants to be tested, were centrifuged (5000 g/5 min/5° C.) and the culture medium was discarded. Cell pellets were resuspended in 1 ml of 20 mM Bis-Tris, pH 6.0. Cell disruption was achieved by sonication (4×15 sec at an amplitude of 11 μm with 20 sec pauses between each sonication round). The resulting suspensions were centrifuged (20000 g/30 min/8° C.) and the supernatants (crude extracts) were transferred to fresh tubes. Crude extracts were then analysed for protein content using a Bradford protein assay (Biorad). Equivalent amounts of proteins were loaded onto 4-12% NuPAGE gels (Novex). After SDS-PAGE, proteins were transferred onto nitrocellulose membrane by semi-dry blotting. For immunoreaction, incubation with rabbit TNFα antiserum (1 h; dilution 1:10 000) and with horse radish peroxidase-conjugated secondary antibody (Dako P448) were carried out in Tris 50 mM, NaCl 150 mM, EDTA 5 mM, Igepal 0.1%, gelatine 0.5%. Detection was with ECL™ reagents (GE Healthcare).

| Molecule | protease resistance of TNF variants (proteolytic cleavage inside the PADRE analogue sequence) |
| --- | --- |
| B1 | protease resistant |
| B2 | protease resistant |
| B3 | protease resistant |
